Data reported in patent US9005614B2, “PRLR-specific antibody and uses thereof” (Novartis AG, priority 2006, dated 2015).
Where two headings read alike, the source gives them in different places.

Assays:
BaF3/PRLR cells = test: In vitro combination of anti-PRLR mAbs and chemotherapeutics, cell survival (CellTiter Glo); format: cell-based; conditions: 5 days
Method: Cell survival was determined by CellTiter Glo analysis and is reported aS RLU (y-axis).
Due to the possibility that a potential anti-PRLR therapeutic antibody may be administered in conjunction with cytotoxic drug regimens in the clinic, the effects of such combination therapies on cell survival in culture was investigated. […] An array of clinically-relevant and mechanistically diverse cytotoxic agents were utilized in this assay: Doxorubicin (an anthracycline Topo II inhibitor), Taxol (a microtubule stabilizing agent), Fludarabine (an anti-metabolite), and Cisplatin (a platinum-based DNA cross-linking drug).

[1] = system: PRL-induced phospho-PRLR and phospho-Stat5; test: PRL-induced PRLR and STAT5 phosphorylation in T47D cells by Western blot; format: cell-based, human
Method: Cells were pre-treated with 1 ug/ml mAb prior to 30 min stimulation with 50 ng/ml PRL. Lysates were analyzed for the presence of phospho-PRLR using antibodies specific for phosphotyrosine residues 546 and 611 of the PRLR.
T47D cells were incubated with 1 or 10 ug/ml mAb, then treated with or without PRL (50 ng/ml) for an additional 30 min.
The ability of selected antibodies to inhibit PRL-induced phosphorylation of STAT5 and AKT was determined as follows. Cells were seeded overnight in 6 well plates at a density of 3×10^5 cells/ml in phenol red-free RPMI/10% FBS. The following day, media was replaced with serum-free RPMI for 30 min. In some experiments, anti-PRLR or non-specific control antibodies were incubated with cells during this serum starvation period. 50 ng/ml PRL was then added to wells for 30 min, after which cells were rinsed once in PBS and lysed in a buffer consisting of 50 mM Tris-HCl, pH7.5, 150 mM NaCl, 1 mM EDTA, 1% NP-40, 1 mM Na3OV4, 50 mM NaF, 0.25% deoxycholate and protease inhibitors. Tubes were spun down at 14,000 rpm in a refrigerated microfuge and lysates were quantitated using BCA reagents. 30 μg of whole cell lysate was separated by 10% SDS-PAGE and proteins were detected using phospho-specific antibodies for STAT5A/B (Y694/Y699, Upstate) or PRLR (Y546/Y611, in-house) and ECL. Equal protein loading was determined by staining with antibodies specific for total STAT5 (BD) or PRLR (Zymed) or AKT (Cell Signalling). Results of a representative assay of effect of a PRLR-specific antibody on PRLR intracellular phosphorylation are shown in FIG. 6.
Chimeric mAbs were analyzed for their ability to inhibit the proliferation and survival of BaF/PRLR cells [FIG. 11]. […] In order to assess the PRLR signal-neutralizing capability of the chimeric antibodies in a human breast cancer model, T47D cells were treated with 1 ug/ml mAb for 30 min prior to PRL stimulation. At the same time, additional cell samples were incubated with antibody alone to examine any potential agonism gained through chimerization of the antibody candidates.
Antibodies were assessed in target modulation and cell proliferation assays. FIG. 16 depicts the effect of 2 concentrations of chXHA.06.642 and HUMAN ENGINEERED™ antibodies he.06.642-1 and he.06.642-2, on PRL-induced Stat5 phosphorylation in T47D cells. […] Similar results were found for chXHA.06.275 variants.

human PRLR ECD = molecular target: T1, human PRLR ECD (Homo sapiens, UniProt P16471); test: Biacore kinetic titration, antibody captured on Protein A/G; format: binding; conditions: Table 9, Human PRLR ECD; unit not given
T1 construct: His6 (C); made in house; host or cells: Tn5 insect cells, baculovirus
T1 sequence (P16471 25-234): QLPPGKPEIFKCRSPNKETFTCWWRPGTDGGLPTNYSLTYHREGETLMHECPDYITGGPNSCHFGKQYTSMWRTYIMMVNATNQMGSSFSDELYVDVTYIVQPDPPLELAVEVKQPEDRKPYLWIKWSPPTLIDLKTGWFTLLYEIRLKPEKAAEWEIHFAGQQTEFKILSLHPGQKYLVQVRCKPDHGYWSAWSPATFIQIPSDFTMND
Method: (§1) Affinity of the chimerized and HUMAN ENGINEERED™ antibodies determined by Biacore analysis. Briefly, a CM5 sensor chip (Biacore) immobilized with Protein A/G (Pierce) via NHS/EDC was used to capture approximately 600 RU of antibody on the chip surface. Five concentrations of PRLR ECD beginning at 5 ug/mL (185 nM) and serially diluted at 5× dilution to 0.3 nM were injected from lowest to highest concentration in the kinetic titration injection mode, and 15 minutes of dissociation data was collected. The experiments were double-referenced, i.e. an adjacent flow cell response was subtracted automatically, and the response from a buffer injection experiment was subtracted from the experimental data set. Kinetic and derived parameters (ka, kd and KD) were determined by fitting to a 1:1 Langmuir model using BiaEval software customized to the kinetic titration injection mode. Affinity measurements of both chimeric and all HUMAN ENGINEERED™ antibodies against human and cynomolgus PRLR ECD are summarized in Table 9 and Table 10.

cynomolgus PRLR ECD = molecular target: T2, cynomolgus PRLR ECD (Macaca fascicularis, UniProt A0A2K5WXK1); test: as above; format: binding; conditions: Table 9, Cyno PRLR ECD; unit not given
T2 construct: antibodies against human and cynomolgus PRLR ECD
T2 sequence (A0A2K5WXK1 25-234): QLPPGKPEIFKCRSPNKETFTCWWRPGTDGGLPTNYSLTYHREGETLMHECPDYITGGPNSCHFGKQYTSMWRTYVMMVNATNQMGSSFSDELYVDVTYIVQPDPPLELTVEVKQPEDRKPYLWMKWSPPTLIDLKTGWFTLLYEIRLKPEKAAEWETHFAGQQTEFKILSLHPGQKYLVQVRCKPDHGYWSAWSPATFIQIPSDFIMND
Method: as §1

[2] = Mus musculus, 120 h, co-administered anti-KLH control Ab 1 ug/ml, read-out: chemotherapeutic IC50 with KLH (1 ug/ml)
[3] = Mus musculus, 120 h, co-administered chXHA.06.275 1 ug/ml, read-out: chemotherapeutic IC50 with chXHA.06.275 (1 ug/ml)
[4] = Mus musculus, 120 h, co-administered chXHA.06.642 1 ug/ml, read-out: chemotherapeutic IC50 with chXHA.06.642 (1 ug/ml)

Row | Molecule | IC50 (BaF3/PRLR cells; [2]) [nM] | IC50 (BaF3/PRLR cells; [3]) [nM] | IC50 (BaF3/PRLR cells; [4]) [nM] | ka (human PRLR ECD) | kd (human PRLR ECD) | ka (cynomolgus PRLR ECD) | kd (cynomolgus PRLR ECD) | other results
1 | Nc1nc(F)nc2c1ncn2[C@@H]1O[C@H](CO)[C@@H](O)[C@@H]1O [Fludarabine] | 105000 | 93800 | 40000 | – | – | – | – | –
2 | COc1cccc2c1C(=O)c1c(O)c3c(c(O)c1C2=O)C[C@@](O)(C(=O)CO)C[C@@H]3O[C@H]1C[C@H](N)[C@H](O)[C@H](C)O1 [Doxorubicin] | 6.44 | 2.56 | 2.14 | – | – | – | – | –
3 | N.N.[Cl][Pt][Cl] [Cisplatin] | – | – | – | – | – | – | – | IC50 (BaF3/PRLR cells; co-administered anti-KLH control Ab 1 ug/ml, read-out: chemotherapeutic IC50 with KLH (1 ug/ml)): 166 nM; IC50 (BaF3/PRLR cells; co-administered chXHA.06.275 1 ug/ml, read-out: chemotherapeutic IC50 with chXHA.06.275 (1 ug/ml)): 46.8 nM; IC50 (BaF3/PRLR cells; co-administered chXHA.06.642 1 ug/ml, read-out: chemotherapeutic IC50 with chXHA.06.642 (1 ug/ml)): 27.6 nM
4 | CC(=O)O[C@H]1C(=O)[C@@]2(C)[C@H]([C@H](OC(=O)c3ccccc3)[C@]3(O)C[C@H](OC(=O)[C@H](O)[C@@H](NC(=O)c4ccccc4)c4ccccc4)C(C)=C1C3(C)C)[C@]1(OC(C)=O)CO[C@@H]1C[C@@H]2O [Taxol] | 4.14 | 2.45 | 2.07 | – | – | – | – | –
5 | he.06.642-1: HUMAN-ENGINEERED antibody from XHA.06.642; variable regions SEQ ID NO: 88 and SEQ ID NO: 89 by order of listing (antibody, V domains shown) VH: EVQLVESGGGLVQPGGSLRLSCAVSGFTFSSYGMSWVRQAPGKRLEWVATVSSGGTYTYYPDSVKGRFTISRDNSKNTLYLQMNSLRAEDTAMYYCARHRGNYYATYYYAMDYWGQGTLVTVSS VL: DIVLTQSPDSLAVSLGERATINCKASKSVSTSGYTYMHWYQQKPGQPPKLLIYLASNRESGVPDRFSGSGSGTDFTLTISPVQAEDVATYYCQHSGELPPSFGQGTKLEIK | – | – | – | 1.7E+05 | 3.5E−04 | 1.2E+05 | 3.8E−03 | agonism: induction of PRLR signaling by antibody alone ([1]; T47D cells treated with mAb alone): neither antibody displayed any agonistic activity; block of PRL-induced signaling (phospho-PRLR, phospho-Stat5) ([1]; T47D cells, 1 or 10 ug/ml mAb, then PRL 50 ng/ml 30 min): complete p-Stat5 signal abrogation
6 | he.06.275-1: HUMAN-ENGINEERED antibody from XHA.06.275; variable regions SEQ ID NO: 91 and SEQ ID NO: 93 by order of listing (antibody, V domains shown) VH: DVQLQESGPGLVKPSQTLSLTCTVTGYSITSDYAWNWIRQFPGKKLEWMGYISYSGSTSYNPSLKSRITISRDTSKNQFSLQLNSVTAADTATYFCARDYGYVFDYWGQGTTLTVSS VL: DVQITQSPSSLSASPGDRITLTCRASKNIYKYLAWYQEKPGKTNNLLIYSGSTLHSGIPSRFSGSGSGTDFTLTISSLQPEDFAMYYCQQHNDYPYTFGQGTKLEIK | – | – | – | 6.2E+05 | 3.1E−04 | 3.6E+05 | 5.7E−04 | –
7 | he.06.275-2: HUMAN-ENGINEERED antibody from XHA.06.275; variable regions SEQ ID NO: 91 and SEQ ID NO: 94 by order of listing (antibody, V domains shown) VH: QVQLQESGPGLVKPSQTLSLTCTVSGYSITSDYAWNWIRQFPGKGLEWMGYISYSGSTSYNPSLKSRITISRDTSKNQFSLQLNSVTAADTAVYFCARDYGYVFDYWGQGTTLTVSS VL: DVQITQSPSSLSASPGDRITLTCRASKNIYKYLAWYQEKPGKTNNLLIYSGSTLHSGIPSRFSGSGSGTDFTLTISSLQPEDFAMYYCQQHNDYPYTFGQGTKLEIK | – | – | – | 6.0E+05 | 3.7E−04 | 3.7E+05 | 6.9E−04 | –
8 | he.06.275-3: HUMAN-ENGINEERED antibody from XHA.06.275; variable regions SEQ ID NO: 92 and SEQ ID NO: 93 by order of listing (antibody, V domains shown) VH: DVQLQESGPGLVKPSQTLSLTCTVTGYSITSDYAWNWIRQFPGKKLEWMGYISYSGSTSYNPSLKSRITISRDTSKNQFSLQLNSVTAADTATYFCARDYGYVFDYWGQGTTLTVSS VL: DVQITQSPSSLSASPGDRITLTCRASKNIYKYLAWYQEKPGKANKLLIYSGSTLHSGIPSRFSGSGSGTDFTLTISSLQPEDFAMYYCQQHNDYPYTFGQGTKLEIK | – | – | – | 6.4E+05 | 2.7E−04 | 3.9E+05 | 5.0E−04 | –
